Source: the RNAGym collection of RNA variant scans (doi:10.7554/elife.80360)

B1: Twister Ribozyme (parent)
chain: AACACUGCCAAUGCCGGUCCCAAGCCCGGAUAAAAGUGGAGGGGGCGG

Variants of: B1
Test: self-cleavage, relative activity (ratio to wild type); higher = more cleavage; co-transcriptional

| Variant | self-cleavage |
| --- | --- |
| A30C U37G | 0.306 |
| G29U G41C | 0.25 |
| G28A G41A | 0.385 |
| C27G U31C | 0.072 |
| G29A G44A | 0.738 |
| G29A G44C | 0.803 |
| G29A G44U | 0.922 |
| G29A G38U | 0.634 |
| G29U A30G | 1 |
| G28U C46A | 0.778 |
| G28U C46G | 0.765 |
| A30C U31C | 0.841 |
| A30C U31A | 0.687 |
| A30G G36U | 0.32 |
| G29U A35C | 0.892 |
| G29U A35G | 0.786 |
| G28U G36C | 0.232 |
| G28U G36A | 0.388 |
| G29U A34U | 0.666 |
| G29U A34C | 0.185 |
| G28A A30U | 0.844 |
| G28A A30G | 0.938 |
| G28A A30C | 0.935 |
| G29A G47C | 0.347 |

| Variant | self-cleavage |
| --- | --- |
| G29A G47A | 0.689 |
| G29A G47U | 0.765 |
| G28C A40U | 0.17 |
| A30C G36U | 0.0939 |
| A30C G36C | 0.0822 |
| G29U A32C | 0.836 |
| A30G G48C | 1.13 |
| A30G G48U | 0.96 |
| C27U G44C | 0.777 |
| C27U G44A | 0.84 |
| G28A G38A | 0.821 |
| A30C G41U | 0.156 |
| A30C G41A | 0.133 |
| A30C G41C | 0.124 |
| G28C G39C | 0.159 |
| C27G G47U | 0.0917 |
| C27G G47C | 0.0485 |
| C27G G47A | 0.0917 |
| C27G A40U | 0.107 |
| C27G A40C | 0.119 |
| C27G A40G | 0.062 |
| C27U G41U | 0.345 |
| C27U G41C | 0.176 |
| C27U G41A | 0.347 |

| Variant | self-cleavage |
| --- | --- |
| C27A G48C | 0.563 |
| A30G G42U | 0.377 |
| C27U A32G | 0.697 |
| A30C G43U | 0.121 |
| A30C G43C | 0.103 |
| G28U A30C | 0.968 |
| G28U A30G | 0.999 |
| G29C G38U | 0.627 |
| C27A G43C | 0.136 |
| C27A G43A | 0.148 |
| C27A G42A | 0.0939 |
| G28C G45U | 0.349 |
| G28C G45C | 0.155 |
| A30C C46A | 0.612 |
| A30C C46G | 0.647 |
| A30C C46U | 0.798 |
| G29C G43U | 0.156 |
| C27U U31G | 0.723 |
| C27U U31A | 0.792 |
| A30G A40G | 0.187 |
| G28C A32U | 0.813 |
| G28C A32G | 0.734 |
| G28C G41C | 0.217 |
| G28C G41A | 0.408 |

| Variant | self-cleavage |
| --- | --- |
| G28C G41U | 0.332 |
| G29C G36U | 0.106 |
| G28U G44U | 0.879 |
| G28U G44C | 0.782 |
| G29C A34C | 0.148 |
| G29C A34G | 0.214 |
| C27U G38A | 0.72 |
| C27U G38U | 0.756 |
| G29C G45A | 0.667 |
| G29C G45U | 0.362 |
| G28A A33G | 0.781 |
| G28A A33U | 0.707 |
| A30G C46U | 0.779 |
| A30G C46G | 0.964 |
| C27G A30C | 0.105 |
| C27G A30G | 0.0912 |
| G29C A30C | 0.971 |
| G28C G47C | 0.254 |
| G29U A40G | 0.167 |
| G29U A40C | 0.208 |
| G29U A40U | 0.145 |
| C27A U31C | 0.495 |
| C27U G39U | 0.168 |
| C27G G43U | 0.0926 |

| Variant | self-cleavage |
| --- | --- |
| C27G G43A | 0.0971 |
| C27G G43C | 0.0881 |
| G29A A33G | 0.845 |
| A30C G45U | 0.573 |
| G28C C46U | 0.841 |
| G28C C46A | 0.684 |
| G28C C46G | 0.565 |
| G29U G42A | 0.224 |
| A30C A32C | 0.758 |
| A30C A32U | 0.9 |
| C27U | 0.876 |
| C27G | 0.0872 |
| C27A A35G | 0.0986 |
| C27A A35U | 0.742 |
| G29C U37C | 0.182 |
| G29C U37A | 0.259 |
| G29C U37G | 0.4 |
| C27U G43U | 0.219 |
| C27U G43A | 0.211 |
| G28U G45U | 0.375 |
| G29C U31G | 0.851 |
| G29C U31A | 1 |
| G29U G48U | 0.867 |
| G29U G48A | 0.905 |

| Variant | self-cleavage |
| --- | --- |
| G28U U37A | 0.348 |
| G28U U37C | 0.431 |
| G28U U37G | 0.168 |
| G29C G39U | 0.12 |
| G29C G39A | 0.143 |
| A30G A32C | 0.877 |
| G29A G43U | 0.326 |
| G29A G43A | 0.195 |
| G29A G43C | 0.163 |
| G28A G47A | 0.545 |
| G28A G47U | 0.576 |
| G28A G47C | 0.283 |
| C27G G42A | 0.0529 |
| C27G G42C | 0.082 |
| C27G A32G | 0.0742 |
| G29A G42A | 0.284 |
| G29A G42U | 0.323 |
| C27U G45U | 0.638 |
| G28C U37C | 0.267 |
| A30G A35G | 0.869 |
| A30G A33C | 1.06 |
| A30G A33U | 0.919 |
| A30C A33U | 0.766 |
| A30C A33C | 0.676 |

| Variant | self-cleavage |
| --- | --- |
| G29U | 0.937 |
| G29A | 0.915 |
| G29C | 0.858 |
| A30C G47U | 0.48 |
| A30C G47A | 0.577 |
| G28C G29C | 0.865 |
| G28C G29U | 0.98 |
| C27A C46G | 0.466 |
| C27A C46U | 0.639 |
| C27A C46A | 0.416 |
| G29C G47A | 0.397 |
| G29C G47C | 0.222 |
| G29C G47U | 0.3 |
| G29A G39U | 0.232 |
| C27A U37A | 0.138 |
| C27A U37G | 0.0964 |
| C27A U37C | 0.136 |
| G29C G42A | 0.11 |
| G29C G42C | 0.174 |
| G29C G42U | 0.129 |
| G28A A32U | 0.817 |
| G28A A32C | 0.941 |
| G28A A32G | 0.835 |
